Data taken from PMC10881386.

Key:
[1] = target: FG domain comprising 52 GLFG 12mer repeat units; test: FG phase partitioning (confocal microscopy); FG domain phase-separated by dilution from guanidinium hydrochloride, then fluorescent probe added; 50 mM Tris/HCl pH 7.5, 250 mM NaCl, 1 mM IP6; scanned after 1 h; partition coefficient = signal in the FG particle : outside
[2] = target: disulfide-stabilized HIV-1 CA hexamer (CA-P1A, A14C, E45C, W184A, M185A) (HIV-1); test: SEC; Superdex 200 increase, 20 mM Tris/HCl pH 8.0, 150 mM NaCl, 100 µM IP6; peak fraction seen by negative-stain EM; disulfide-stabilised hexamer

Substance | partition coefficient (in:out) [1] | stoichiometry N [2]
40 nm capsid spheres (CA-P1A/N21C/A22C) labelled with CA–EGFP (complex) | > 300 | –
capsid-like particles (CLPs) assembled from wild-type CA, with encapsulated mCherry (complex) | > 750 | –
disulfide-stabilized HIV-1 CA hexamer (CA-P1A, A14C, E45C, W184A, M185A) (complex) | – | 6
mCherry | < 0.05 | –
